The target in assay [1] is GluA2S amino-terminal domain expressed in HEK293T cells (complex glycosylation). The assay can be described thus: AUC.
The target is the same in assay [2]. In words: AUC. The source holds these as a separate data set.
The target is the same in assay [3]. In words: dynamic light scattering.
The target is the same in assay [4]. The assay can be described thus: SEC-MALS.
In assay [5] the target is GluA2S amino-terminal domain expressed in HEK293S GnTI- cells (high mannose glycans). The assay can be described thus: AUC.
The target is the same in assay [6]. The assay can be described thus: SEC-MALS.
Assay [7] deals with DyLight405-labeled, EndoH-digested GluA2S amino-terminal domain. The assay can be described thus: fluorescence polarisation. (Fluorescence polarisation rises when a labelled molecule tumbles more slowly, as on binding a larger partner.)
Assay [8] concerns the target GluA2S amino-terminal domain expressed in GnTI- cells and digested with EndoH. In words: AUC.
The target of assay [9] is DyLight405-labeled, EndoH-digested GluA2S amino-terminal domain. In words: fluorescence polarisation. The source holds these as a separate data set.
Assay [10] addresses GluA2S amino-terminal domain expressed in GnTI- cells and digested with EndoH. The assay can be described thus: AUC. This is another data set of the same source.
Assay [11] shares this target. The assay can be described thus: AUC. The source holds these as a separate data set.
For assay [12] the target is unchanged. The assay can be described thus: AUC. The source holds these as a separate data set.
Assay [13] has the same target. The assay can be described thus: dynamic light scattering.
For assay [14] the target is unchanged. The assay can be described thus: AUC. The source holds these as a separate data set.
Assay [15] shares this target. The assay can be described thus: AUC. The source holds these as a separate data set.
For assay [16] the target is unchanged. The assay can be described thus: SEC-MALS.
Assay [17] addresses GluA3 amino-terminal domain expressed in HEK293T cells (UniProt P19492). In words: AUC.
The target is the same in assay [18]. The assay can be described thus: AUC. The source holds these as a separate data set.
Assay [19] addresses FAM-labeled, EndoH-digested GluA2S amino-terminal domain. In words: AUC.
Assay [20] shares this target. The assay can be described thus: AUC. This is another data set of the same source.
For assay [21] the target is unchanged. In words: AUC. This is another data set of the same source.

Values joined by “and” are separate entries in the source; they are usually repeats but may differ in a detail not shown here. Equal values may be shown once. Read-outs that look alike come from different tables or passages of the source.

This is an account of results in publication PMC3343374.

Chain of GluA2S amino-terminal domain expressed in HEK293T cells (complex glycosylation) (P19491 22-883, one chain of several): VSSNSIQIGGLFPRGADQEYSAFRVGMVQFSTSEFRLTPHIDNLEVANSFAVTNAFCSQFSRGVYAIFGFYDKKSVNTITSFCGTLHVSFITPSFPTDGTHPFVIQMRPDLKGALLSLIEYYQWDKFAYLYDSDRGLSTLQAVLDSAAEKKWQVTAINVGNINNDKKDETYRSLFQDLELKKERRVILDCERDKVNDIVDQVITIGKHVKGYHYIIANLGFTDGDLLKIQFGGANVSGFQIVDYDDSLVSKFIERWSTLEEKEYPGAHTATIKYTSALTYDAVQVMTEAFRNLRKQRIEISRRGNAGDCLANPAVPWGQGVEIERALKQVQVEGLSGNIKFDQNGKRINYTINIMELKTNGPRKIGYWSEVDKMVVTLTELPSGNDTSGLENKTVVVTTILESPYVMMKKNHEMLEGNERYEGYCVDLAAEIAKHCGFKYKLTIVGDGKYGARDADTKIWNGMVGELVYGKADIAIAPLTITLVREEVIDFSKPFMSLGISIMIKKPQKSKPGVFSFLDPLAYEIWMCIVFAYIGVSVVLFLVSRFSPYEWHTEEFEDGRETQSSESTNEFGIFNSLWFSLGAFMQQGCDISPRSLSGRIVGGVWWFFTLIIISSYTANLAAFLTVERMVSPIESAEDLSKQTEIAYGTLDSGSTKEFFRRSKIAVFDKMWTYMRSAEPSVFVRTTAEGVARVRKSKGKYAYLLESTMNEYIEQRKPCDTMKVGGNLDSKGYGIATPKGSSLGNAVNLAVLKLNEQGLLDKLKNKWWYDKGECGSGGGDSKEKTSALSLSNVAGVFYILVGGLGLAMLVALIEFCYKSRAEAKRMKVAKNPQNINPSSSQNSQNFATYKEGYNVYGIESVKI
Chain of GluA2S amino-terminal domain expressed in GnTI- cells and digested with EndoH (P19491 22-883): as the sequence (P19491 22-883, one chain of several) above
Chain of FAM-labeled, EndoH-digested GluA2S amino-terminal domain (P19491 22-883): as the sequence (P19491 22-883, one chain of several) above
Chain of GluA2S amino-terminal domain expressed in HEK293S GnTI- cells (high mannose glycans) (P19491 22-883): as the sequence (P19491 22-883, one chain of several) above

In the case of “GluA2S amino-terminal domain expressed in HEK293T cells (complex glycosylation) (domain or fragment)”, the results for the dissociation constant Kd in assay [1] and in assay [2] were 0.0083 µM and 0.006 µM, respectively. For the same substance, the stoichiometry N in assay [3] and in [4] was 2 each time.

Take “GluA2S amino-terminal domain expressed in HEK293S GnTI- cells (high mannose glycans) (domain or fragment)”: in [5], the Kd (usually the constant that tells how readily two partners part at equilibrium) is 0.011 µM. Besides, the stoichiometry N (as a rule, the number of molecules, sites or subunits per partner or assembly) in assay [6] was determined as 2.

With “GluA2S amino-terminal domain expressed in GnTI- cells and digested with EndoH (domain or fragment)”, the Kd in [7] is 0.0097 µM; in assay [8] it was 0.03 µM; in [9], 0.0108 µM and 0.0113 µM and 0.00843 µM; in [10] it was 0.0056 µM and 0.0083 µM and 0.0097 µM; in assay [11], 0.57 µM; in assay [12] it was 0.16 µM and 0.284 µM. Further, the Kd in [14] was 0.017 µM; in assay [15] it was greater than 2500 µM. The stoichiometry N in [13] and in [16] was 2 each time.

As to “GluA3 amino-terminal domain expressed in HEK293T cells (from UniProt P19492 23-888) (domain or fragment)”, the results for the Kd in assay [17] and in [18] were 3.1 µM and greater than 162 µM, respectively.

As to “FAM-labeled, EndoH-digested GluA2S amino-terminal domain (domain or fragment)”, the Kd in [19] amounted to 0.026 µM; in assay [20], 0.0149 µM; in [21], 0.0053 µM.
